Tests used:
Assay in all cases: SPR; Biacore T200; antibody captured on anti-human Fc (CM5 chip); CD30-MBP flowed at 0, 2, 20 nM (T426: 0, 20, 200 nM), contact 90 s, dissociation 300 s; fit to a 1:1 binding mode; rough-level analysis
Details in all cases: both partners purified
[1] = target: T1, BpT10-104
T1 construct: AC10 Fv, N side; T104 Fv, C side; one Fab of each Fv; knobs-into-holes Fc; source: Expi293 fragments joined by intein-mediated protein trans-splicing, purified (Superdex 200 Increase); copies: + + +
T1 sequence (chain, as listed by the source, chain 1 of 4): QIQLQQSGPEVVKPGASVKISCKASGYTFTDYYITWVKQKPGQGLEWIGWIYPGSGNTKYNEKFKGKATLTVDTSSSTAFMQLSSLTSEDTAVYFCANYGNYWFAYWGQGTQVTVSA
T1 sequence (chain, as listed by the source, chain 2 of 4): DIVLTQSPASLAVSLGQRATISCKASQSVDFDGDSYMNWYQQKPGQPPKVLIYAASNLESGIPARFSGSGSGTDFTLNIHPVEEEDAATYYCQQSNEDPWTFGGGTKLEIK
T1 sequence (chain, as listed by the source, chain 3 of 4): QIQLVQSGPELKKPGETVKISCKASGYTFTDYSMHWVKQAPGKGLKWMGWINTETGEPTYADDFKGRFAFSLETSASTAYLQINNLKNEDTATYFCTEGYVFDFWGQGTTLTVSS
T1 sequence (chain, as listed by the source, chain 4 of 4): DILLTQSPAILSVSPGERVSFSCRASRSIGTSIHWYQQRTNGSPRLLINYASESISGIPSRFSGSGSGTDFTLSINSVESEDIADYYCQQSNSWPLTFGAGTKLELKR

[2] = target: T2, BpT105-6
T2 construct: T105 Fv, N side; T6 Fv, C side; one Fab of each Fv; knobs-into-holes Fc; source: Expi293 fragments joined by intein-mediated protein trans-splicing, purified (Superdex 200 Increase); copies: + + +
T2 sequence (chain, as listed by the source, chain 1 of 4): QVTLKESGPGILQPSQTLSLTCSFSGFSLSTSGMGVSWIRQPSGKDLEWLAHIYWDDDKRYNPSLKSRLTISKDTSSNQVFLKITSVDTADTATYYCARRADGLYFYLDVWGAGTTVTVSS
T2 sequence (chain, as listed by the source, chain 2 of 4): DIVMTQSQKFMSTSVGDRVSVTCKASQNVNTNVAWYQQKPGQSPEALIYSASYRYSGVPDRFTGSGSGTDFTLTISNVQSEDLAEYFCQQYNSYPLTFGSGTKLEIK
T2 sequence (chain, as listed by the source, chain 3 of 4): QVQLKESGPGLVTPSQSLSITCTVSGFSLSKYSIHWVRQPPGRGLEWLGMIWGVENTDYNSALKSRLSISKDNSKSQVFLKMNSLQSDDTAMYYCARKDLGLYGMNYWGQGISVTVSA
T2 sequence (chain, as listed by the source, chain 4 of 4): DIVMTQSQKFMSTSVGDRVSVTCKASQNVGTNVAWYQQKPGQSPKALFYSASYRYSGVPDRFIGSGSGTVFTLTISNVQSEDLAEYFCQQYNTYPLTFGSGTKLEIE

[3] = target: T3, BpT105-405
T3 construct: T105 Fv, N side; T405 Fv, C side; one Fab of each Fv; knobs-into-holes Fc; source: Expi293 fragments joined by intein-mediated protein trans-splicing, purified (Superdex 200 Increase); copies: + + +

[4] = target: T4, BpT10-427
T4 construct: AC10 Fv, N side; T427 Fv, C side; one Fab of each Fv; knobs-into-holes Fc; source: Expi293 fragments joined by intein-mediated protein trans-splicing, purified (Superdex 200 Increase); copies: + + +
T4 sequence (chain, as listed by the source, chain 3 of 4): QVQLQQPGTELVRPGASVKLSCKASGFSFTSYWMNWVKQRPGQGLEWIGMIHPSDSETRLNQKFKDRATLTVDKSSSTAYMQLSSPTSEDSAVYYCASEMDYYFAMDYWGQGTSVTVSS
T4 sequence (chain, as listed by the source, chain 4 of 4): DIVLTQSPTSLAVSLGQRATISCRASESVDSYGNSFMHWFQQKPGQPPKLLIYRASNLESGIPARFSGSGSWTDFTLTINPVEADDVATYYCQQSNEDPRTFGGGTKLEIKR

[5] = target: T5, BpT104-405
T5 construct: T104 Fv, N side; T405 Fv, C side; one Fab of each Fv; knobs-into-holes Fc; source: Expi293 fragments joined by intein-mediated protein trans-splicing, purified (Superdex 200 Increase); copies: + + +

[6] = target: T6, BpT10-405
T6 construct: AC10 Fv, N side; T405 Fv, C side; one Fab of each Fv; knobs-into-holes Fc; source: Expi293 fragments joined by intein-mediated protein trans-splicing, purified (Superdex 200 Increase); copies: + + +

[7] = target: T7, BpT10-6
T7 construct: AC10 Fv, N side; T6 Fv, C side; one Fab of each Fv; knobs-into-holes Fc; source: Expi293 fragments joined by intein-mediated protein trans-splicing, purified (Superdex 200 Increase); copies: + + +

[8] = target: T8, BpT104-25
T8 construct: T104 Fv, N side; T25 Fv, C side; one Fab of each Fv; knobs-into-holes Fc; source: Expi293 fragments joined by intein-mediated protein trans-splicing, purified (Superdex 200 Increase); copies: + + +
T8 sequence (chain, as listed by the source, chain 3 of 4): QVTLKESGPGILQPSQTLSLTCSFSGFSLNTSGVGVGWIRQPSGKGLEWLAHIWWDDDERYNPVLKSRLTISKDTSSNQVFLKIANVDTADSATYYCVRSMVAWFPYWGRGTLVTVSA
T8 sequence (chain, as listed by the source, chain 4 of 4): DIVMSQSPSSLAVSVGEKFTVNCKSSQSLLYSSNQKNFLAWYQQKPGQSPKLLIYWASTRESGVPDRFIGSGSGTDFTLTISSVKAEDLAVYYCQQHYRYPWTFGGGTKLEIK

[9] = target: T9, BpT10-105
T9 construct: AC10 Fv, N side; T105 Fv, C side; one Fab of each Fv; knobs-into-holes Fc; source: Expi293 fragments joined by intein-mediated protein trans-splicing, purified (Superdex 200 Increase); copies: + + +

B1: Maltose-binding protein-fused CD30 (domain or fragment)
chain: FPQDRPFEDTCHGNPSHYYDKAVRRCCYRCPMGLFPTQQCPQRPTDCRKQCEPDYYLDEADRCTACVTCSRDDLVEKTPCAWNSSRVCECRPGMFCSTSAVNSCARCFFHSVCPAGMIVKFPGTAQKNTVCEPASPGVSPACASPENCKEPSSGTIPQAKPTPVSPATSSASTMPVRGGTRLAQEAASKLTRAPDSPSSVGRPSSDPGLSPTQPCPEGSGDCRKQCEPDYYLDEAGRCTACVSCSRDDLVEKTPCAWNSSRTCECRPGMICATSATNSCARCVPYPICAAETVTKPQDMAEKDTTFEAPPLGTQPDCN
modifications: Construct 1-336 includes signal peptide 1-18, taken as cleaved on secretion; C-terminal MBP carrier and His tag left out; disulfide-bonded, likely glycosylated (Expi293)
With B1 as the binder, how does the Kd [1] read?
The Kd was 0.26 nM.

What about the Kd [2] of the same binder?
Its Kd is 0.37 nM.

And the Kd [3]?
Its Kd is 0.67 nM.

And the Kd [4]?
The Kd was 0.58 nM.

And the Kd [5]?
The Kd was 48 nM.

What about the Kd [6] of the same binder?
Its Kd is 0.63 nM.

And the Kd [7]?
Its Kd is 0.27 nM.

And the Kd [8]?
Its Kd is 0.5 nM.

What about the Kd [9] of the same binder?
The Kd was 0.066 nM.

From paper PMC11826918, “Generation of antagonistic biparatopic anti-CD30 antibody from an agonistic antibody by precise epitope determination and utilization of structural characteristics of CD30 molecule” (Antibody Therapeutics, 2025)
